The source of these data is US20090158448A1 (NATIONAL UNIVERSITY CORPORATION TOKYO MEDICAL AND DENTAL …, published 2009).

Holding throughout (experiment): co-immunoprecipitation (anti-myc) and western, 293T cells
The target in assay [1] is T1, mutant MuSK (NA), myc tag (mouse, UniProt Q61006 22-868, limits assumed).
T1 construct: Mutation in the NPXY PTB domain target motif; also called NA mutant; not shown: myc tag
T1 sequence: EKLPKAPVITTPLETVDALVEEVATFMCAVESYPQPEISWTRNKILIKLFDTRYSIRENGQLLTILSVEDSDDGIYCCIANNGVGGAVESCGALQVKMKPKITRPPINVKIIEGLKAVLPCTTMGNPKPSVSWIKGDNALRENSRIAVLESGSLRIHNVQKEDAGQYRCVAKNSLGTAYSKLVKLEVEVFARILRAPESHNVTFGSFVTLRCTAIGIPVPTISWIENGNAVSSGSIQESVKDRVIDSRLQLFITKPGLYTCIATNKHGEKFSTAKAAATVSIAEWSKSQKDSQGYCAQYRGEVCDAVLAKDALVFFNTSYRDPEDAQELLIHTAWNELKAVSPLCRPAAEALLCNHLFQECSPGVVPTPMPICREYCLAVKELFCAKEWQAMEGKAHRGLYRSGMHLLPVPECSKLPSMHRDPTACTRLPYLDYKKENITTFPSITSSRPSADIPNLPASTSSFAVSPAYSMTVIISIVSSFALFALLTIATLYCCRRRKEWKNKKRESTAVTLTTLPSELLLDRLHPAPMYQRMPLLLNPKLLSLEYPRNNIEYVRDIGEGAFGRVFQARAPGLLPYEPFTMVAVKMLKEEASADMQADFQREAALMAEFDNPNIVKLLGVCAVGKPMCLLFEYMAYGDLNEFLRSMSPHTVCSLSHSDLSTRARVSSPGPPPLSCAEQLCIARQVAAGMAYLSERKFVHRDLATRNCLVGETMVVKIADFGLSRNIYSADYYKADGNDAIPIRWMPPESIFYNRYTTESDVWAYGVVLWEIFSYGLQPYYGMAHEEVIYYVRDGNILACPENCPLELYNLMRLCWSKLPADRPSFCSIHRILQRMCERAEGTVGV
The protocol:
(§1) Immunoprecipitation of whole cell lysate (WCL) obtained from each transformed cell strain was carried out using an anti-myc tag antibody, and thus an immunoprecipitate (IP: αmyc) was obtained. Then, a western blot analysis was performed for the whole cell lysate and immunoprecipitate. The antibodies used were the same as the antibodies described above.
(§2) Then, immunoprecipitation of whole cell lysate (WCL) obtained from each transformed cell strain was carried out, and a western analysis was performed on the resulting immunoprecipitate (IP: αmyc). The antibodies used were the same as the antibodies described above.

The target of assay [2] is T2, mutant MuSK (YF), myc tag (mouse, UniProt Q61006 22-868, limits assumed).
T2 construct: Mutation in the NPXY PTB domain target motif; also called YF mutant; not shown: myc tag
T2 sequence: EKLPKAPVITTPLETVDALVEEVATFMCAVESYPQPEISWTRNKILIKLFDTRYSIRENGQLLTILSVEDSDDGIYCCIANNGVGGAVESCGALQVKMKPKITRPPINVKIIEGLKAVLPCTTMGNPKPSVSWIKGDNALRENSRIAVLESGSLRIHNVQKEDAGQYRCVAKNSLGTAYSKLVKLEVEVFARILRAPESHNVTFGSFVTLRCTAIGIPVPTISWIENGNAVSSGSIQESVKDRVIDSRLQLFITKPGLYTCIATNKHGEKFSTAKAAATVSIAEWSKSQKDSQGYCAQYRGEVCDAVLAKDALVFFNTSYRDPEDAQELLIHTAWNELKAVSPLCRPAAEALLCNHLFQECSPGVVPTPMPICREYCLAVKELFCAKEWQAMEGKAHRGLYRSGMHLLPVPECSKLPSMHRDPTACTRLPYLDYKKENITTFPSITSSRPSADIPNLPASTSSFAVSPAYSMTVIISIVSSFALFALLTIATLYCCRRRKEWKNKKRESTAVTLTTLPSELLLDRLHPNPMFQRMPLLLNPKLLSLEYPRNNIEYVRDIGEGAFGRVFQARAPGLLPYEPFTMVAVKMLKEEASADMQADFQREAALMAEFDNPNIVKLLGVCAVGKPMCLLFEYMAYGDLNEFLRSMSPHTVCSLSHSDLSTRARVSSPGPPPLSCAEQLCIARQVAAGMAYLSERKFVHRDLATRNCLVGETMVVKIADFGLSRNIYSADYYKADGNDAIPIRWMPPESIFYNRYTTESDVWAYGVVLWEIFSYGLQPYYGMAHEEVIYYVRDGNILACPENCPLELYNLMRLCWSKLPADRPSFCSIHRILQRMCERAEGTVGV
The protocol:
as §1, §2

For assay [3], the target named is T3, wild type (WT) mouse MuSK fused to myc tag (mouse, UniProt Q61006 22-868, limits assumed).
T3 construct: also called wild type MuSK (WT); muscle-specific tyrosine kinase; not shown: myc tag
T3 sequence: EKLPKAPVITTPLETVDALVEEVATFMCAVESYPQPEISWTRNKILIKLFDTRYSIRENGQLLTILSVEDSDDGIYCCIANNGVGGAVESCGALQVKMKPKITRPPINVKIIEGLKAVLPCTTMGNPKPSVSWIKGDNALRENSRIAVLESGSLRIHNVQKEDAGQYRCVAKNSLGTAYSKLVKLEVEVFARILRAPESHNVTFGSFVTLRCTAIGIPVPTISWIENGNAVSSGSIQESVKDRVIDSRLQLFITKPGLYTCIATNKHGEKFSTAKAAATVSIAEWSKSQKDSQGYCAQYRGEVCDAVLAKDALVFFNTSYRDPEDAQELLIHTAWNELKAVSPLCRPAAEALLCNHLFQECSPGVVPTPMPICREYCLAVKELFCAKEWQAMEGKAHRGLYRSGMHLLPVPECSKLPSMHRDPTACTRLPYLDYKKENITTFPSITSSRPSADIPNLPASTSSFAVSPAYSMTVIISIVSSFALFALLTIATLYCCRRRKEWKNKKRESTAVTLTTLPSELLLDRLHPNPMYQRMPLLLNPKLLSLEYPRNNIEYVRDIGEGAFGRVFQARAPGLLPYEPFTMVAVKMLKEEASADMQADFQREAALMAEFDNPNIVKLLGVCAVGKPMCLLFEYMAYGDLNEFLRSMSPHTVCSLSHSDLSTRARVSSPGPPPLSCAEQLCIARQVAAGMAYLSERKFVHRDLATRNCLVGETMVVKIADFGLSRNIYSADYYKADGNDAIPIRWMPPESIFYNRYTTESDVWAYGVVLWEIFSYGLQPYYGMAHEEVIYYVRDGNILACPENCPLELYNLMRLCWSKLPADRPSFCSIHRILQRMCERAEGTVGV
The method, then:
as §1, §2

B1: wild type human Dok-7 protein (other)
chain: MTEAALVEGQVKLRDGKKWKSRWLVLRKPSPVADCLLMLVYKDKSERIKGLRERSSLTLEDICGLEPGLPYEGLVHTLAIVCLSQAIMLGFDSHEAMCAWDARIRYALGEVHRFHVTVAPGTKLESGPATLHLCNDVLVLARDIPPAVTGQWKLSDLRRYGAVPSGFIFEGGTRCGYWAGVFFLSSAEGEQISFLFDCIVRGISPTKGPFGLRPVLPDPSPPGPSTVEERVAQEALETLQLEKRLSLLSHAGRPGSGGDDRSLSSSSSEASHLDVSASSRLTAWPEQSSSSASTSQEGPRPAAAQAAGEAMVGASRPPPKPLRPRQLQEVGRQSSSDSGIATGSHSSYSSSLSSYAGSSLDVWRATDELGSLLSLPAAGAPEPSLCTCLPGTVEYQVPTSLRAHYDTPRSLCLAPRDHSPPSQGSPGNSAARDSGGQTSAGCPSGWLGTRRRGLVMEAPQGSEATLPGPAPGEPWEAGGPHAGPPPAFFSACPVCGGLKVNPPP
notes: also called WT; polypeptide of the present invention
For the molecule B1, the binding result in assay [1] and in assay [2] was “no binding” each time.

B2: mutant Dok-7 (RA) (other)
chain: MTEAALVEGQVKLRDGKKWKSRWLVLRKPSPVADCLLMLVYKDKSERIKGLRERSSLTLEDICGLEPGLPYEGLVHTLAIVCLSQAIMLGFDSHEAMCAWDARIRYALGEVHRFHVTVAPGTKLESGPATLHLCNDVLVLARDIPPAVTGQWKLSDLAAYGAVPSGFIFEGGTACGYWAGVFFLSSAEGEQISFLFDCIVRGISPTKGPFGLRPVLPDPSPPGPSTVEERVAQEALETLQLEKRLSLLSHAGRPGSGGDDRSLSSSSSEASHLDVSASSRLTAWPEQSSSSASTSQEGPRPAAAQAAGEAMVGASRPPPKPLRPRQLQEVGRQSSSDSGIATGSHSSYSSSLSSYAGSSLDVWRATDELGSLLSLPAAGAPEPSLCTCLPGTVEYQVPTSLRAHYDTPRSLCLAPRDHSPPSQGSPGNSAARDSGGQTSAGCPSGWLGTRRRGLVMEAPQGSEATLPGPAPGEPWEAGGPHAGPPPAFFSACPVCGGLKVNPPP
notes: also called RA of Dok-7
With B2, the binding result in assay [3] is “no binding”.
